Assay results published in US12709637B2, “Regulated synthetic gene activation systems” (TRUSTEES OF BOSTON UNIVERSITY, priority 2023, dated 2026).

Assays:
[1] = tested on: mCherry reporter in Primary T cells; assay: GZV inducible systems driving mCherry reporter in Primary T cells; assay type: cell-based
Procedure: Primary T cells were co-transduced with synZiFTR 2.0 and a minimally expressed mCherry reporter. Upon addition of GZV, the synZiFTR construct activated mCherry expression, which was measured on a flow cytometer (see e.g., FIG. 10).

[2] = tested on: mCherry reporter in Primary T cells; assay: 4OHT inducible systems driving mCherry reporter in Primary T cells; assay type: cell-based
Source text: Primary T cells were co-transduced with synZiFTR 2.0 and a minimally expressed mCherry reporter.

Row | Molecule | activation potency of the transcriptional activator on fusing TIMs domains on the N terminus [1] | activation potency of the transcriptional activator on fusing TIMs domains on the N terminus [2]
1 | NFZ: transcriptional activator, SEQ ID NO: 57, domains from NCOA3, FOXO3 and ZNF473; tested with TIMs on N terminus (protein, listed as Homo sapiens) EGQSDERALLDQLHTLLSNTDATGLEEIDRALGIPELVNQGQALEPKQGGGGSGHEKFPSDLDLDMFNGSLECDMESIIRSELMDADGLDFNFDSGGGGSGFVTLKDVGMDFTLGDWEQLGLEQGDTFWDTALDNCQDLFLLDPP | enhanced activation potency | enhanced activation potency
2 | 3Z: transcriptional activator, SEQ ID NO: 303; tested with TIMs on N terminus (protein) MAEEFVTLKDVGMDFTLGDWEQLGLEQGDTFWDTALDNCQDLFLLDPPRPNLTSHPDGSEDLEPLAGGSPEATSMAEEFVTLKDVGMDFTLGDWEQLGLEQGDTFWDTALDNCQDLFLLDPPRPNLTSHPDGSEDLEPLAGGSPEATSMAEEFVTLKDVGMDFTLGDWEQLGLEQGDTFWDTALDNCQDLFLLDPPRPNLTSHPDGSEDLEPLAGGSPEATS | – | enhanced activation potency
